Reference: patent US20240425589A1, “CYTOTOXICITY-INDUCING THERAPEUTIC AGENT FOR USE IN TREATMENT OF CANCER” (CHUGAI SEIYAKU KABUSHIKI KAISHA, priority 2021, published 2024)
Changes are numbered by the printed parent chain.

B1: H1610L0581: affinity matured Dual-Fab variant, VH SEQ ID NO 94, VL SEQ ID NO 143 (antibody, V domains shown)
VH: QVQLVESGGGLVQPGRSLRLSCAASGFVFSNVWMHWVRQAPGKGLEWVAQIKDKWNAYAAYYAPSVKGRFTISRDDSKNSIYLQMNSLKTEDTAVYYCHYIHYASASTLLPAEGIDAWGQGTTVTVSS
VL: DIVMTQSPLSLPVTPGEPASISCQPSQEVVHMNRNTYLHWYQQKPGQAPRLLIYKVSNRFPGVPDRFSGSGSGTDFTLKISRVEAEDVGVYYCAQGTSHPFTFGQGTKLEIK
B2: H0868L0581: affinity matured Dual-Fab variant, VH SEQ ID NO 91, VL SEQ ID NO 143 (antibody, V domains shown)
VH: B1 VH with V28K, W55Y, I101V, E113F, I115V
VL: B1 VL
B3: H1649L0581: affinity matured Dual-Fab variant, VH SEQ ID NO 97, VL SEQ ID NO 143 (antibody, V domains shown)
VH: B1 VH with M34F, W55Y, A60D, G68E, I101V, I115V
VL: B1 VL
B4: H1610L0939: affinity matured Dual-Fab variant, VH SEQ ID NO 94, VL SEQ ID NO 145 (antibody, V domains shown)
VH: B1 VH
VL: B1 VL with R59V, S98H
B5: H1643L0581: affinity matured Dual-Fab variant, VH SEQ ID NO 95, VL SEQ ID NO 143 (antibody, V domains shown)
VH: B1 VH with V28K, M34F, K54Y, W55Y, I101V, I115V
VL: B1 VL
B6: H1571L0581: affinity matured Dual-Fab variant, VH SEQ ID NO 93, VL SEQ ID NO 143 (antibody, V domains shown)
VH: B1 VH with V28K, M34F, W55Y, A60T, I101V, E113F, I115V
VL: B1 VL
B7: H1647L0581: affinity matured Dual-Fab variant, VH SEQ ID NO 96, VL SEQ ID NO 143 (antibody, V domains shown)
VH: B1 VH with V28K, V32T, M34F, K54Y, W55Y, A57D, I101V, I115V
VL: B1 VL
B8: H1649L0943: affinity matured Dual-Fab variant, VH SEQ ID NO 97, VL SEQ ID NO 146 (antibody, V domains shown)
VH: B1 VH with M34F, W55Y, A60D, G68E, I101V, I115V
VL: B1 VL with Q27E, R59L, S98H

Key:
[1] = target: T1, recombinant human CD3 (human CD3eg linker) (Homo sapiens, UniProt P07766+P09693); assay: Biacore T200 SPR affinity of Dual-Fab antibodies to human CD3; type: binding; settings: 25 degrees C, pH 7.4
T1 construct: made in house; host or cells: FreeStyle293F
Text: The gamma and epsilon subunits of the human CD3 complex (human CD3eg linker) were linked by a 29-mer linker and a Flag-tag was fused to the C-terminal end of the gamma subunit (SEQ ID NO: 169). This construct was expressed transiently using FreeStyle293F cell line (Thermo Fisher). Conditioned media expressing human CD3eg linker was concentrated using a column packed with Q HP resins (GE healthcare) and then applied to FLAG-tag affinity chromatography. Fractions containing human CD3eg linker were collected and subsequently subjected to a Superdex 200 gel filtration column (GE healthcare) equilibrated with 1×D-PBS. Fractions containing human CD3eg linker were then pooled and stored at −80 degrees C.
(§1) Binding affinity of Dual-Fab antibodies (Dual-Ig) to human CD3 were assessed at 25 degrees C. using Biacore T200 instrument (GE Healthcare). Anti-human Fc (GE Healthcare) was immobilized onto all flow cells of a CM4 sensor chip using amine coupling kit (GE Healthcare). Antibodies were captured onto the anti-Fc sensor surfaces, then recombinant human CD3 or CD137 was injected over the flow cell. All antibodies and analytes were prepared in ACES pH 7.4 containing 20 mM ACES, 150 mM NaCl, 0.05% Tween 20, and 0.005% NaN3. Sensor surface was regenerated each cycle with 3M MgCl2. Binding affinity were determined by processing and fitting the data to 1:1 binding model using Biacore T200 Evaluation software, version 2.0 (GE Healthcare). CD137 binding affinity assay was conducted in same condition except assay temperature was set at 37 degrees C.

recombinant human CD137 = target: T2, recombinant human CD137 (Homo sapiens, UniProt Q07011); assay: Biacore T200 SPR affinity of Dual-Fab antibodies to human CD137; type: binding; settings: 37 degrees C, pH 7.4
T2 construct: made in house; host or cells: FreeStyle293F
Text: Human CD137 extracellular domain (ECD) (SEQ ID NO: 179) with hexahistidine (His-tag) and biotin acceptor peptide (BAP) on its C-terminus was expressed transiently using FreeStyle293F cell line (Thermo Fisher). Conditioned media expressing human CD137 ECD was applied to a HisTrap HP column (GE healthcare) and eluted with buffer containing imidazole (Nacalai). Fractions containing human CD137 ECD were collected and subsequently subjected to a Superdex 200 gel filtration column (GE healthcare) equilibrated with 1×D-PBS. Fractions containing human CD137 ECD were then pooled and stored at −80 degrees C.
as §1

T2 sequence (Q07011 with tags, fused parts or gaps): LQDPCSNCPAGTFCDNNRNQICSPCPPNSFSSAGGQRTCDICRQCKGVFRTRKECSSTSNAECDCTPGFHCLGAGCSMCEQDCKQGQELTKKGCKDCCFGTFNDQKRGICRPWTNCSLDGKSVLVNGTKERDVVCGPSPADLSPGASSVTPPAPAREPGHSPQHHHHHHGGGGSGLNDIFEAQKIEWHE
T1 sequence (P07766+P09693 fused): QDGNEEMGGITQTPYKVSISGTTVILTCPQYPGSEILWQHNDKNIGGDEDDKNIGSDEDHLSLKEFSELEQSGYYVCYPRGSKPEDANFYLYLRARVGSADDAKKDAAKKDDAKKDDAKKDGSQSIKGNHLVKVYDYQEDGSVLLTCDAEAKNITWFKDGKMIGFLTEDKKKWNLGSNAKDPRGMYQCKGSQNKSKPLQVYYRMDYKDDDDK

Molecule	CD3 Koff [1] [s⁻¹]	CD3 Kon [1] [M⁻¹ s⁻¹]	CD137 Koff (recombinant human CD137) [s⁻¹]	CD137 Kon (recombinant human CD137) [M⁻¹ s⁻¹]
B1	0.00142	68000	0.0011	10700
B2			0.00136	12200
B3	0.0336	75000	0.000553	12900
B4	0.00253	50000	0.000801	13000
B5	0.0251	94600	0.000606	12300
B6			0.00105	12100
B7			0.000647	9980
B8	0.0481	61000	0.000468	14300
